# Source: patent publication US20030068675, “Position dependent recognition of GNN nucleotide triplets by zinc fingers” (published 2003)
# T1: ZFP SBS#507 (synthetic)
# T1 chain: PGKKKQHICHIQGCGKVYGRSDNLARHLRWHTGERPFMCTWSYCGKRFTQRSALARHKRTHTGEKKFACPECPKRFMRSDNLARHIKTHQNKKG
# T2: ZFP SBS#508 (synthetic)
# T2 chain: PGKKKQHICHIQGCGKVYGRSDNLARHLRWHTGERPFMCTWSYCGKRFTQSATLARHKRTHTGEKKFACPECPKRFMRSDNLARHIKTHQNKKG
# T3: ZFP SBS#493 (synthetic, UniProt P08047)
# T3 chain: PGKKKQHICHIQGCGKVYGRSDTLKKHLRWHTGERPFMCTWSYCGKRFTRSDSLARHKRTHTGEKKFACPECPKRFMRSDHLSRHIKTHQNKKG
# T4: ZFP SBS#390 (synthetic)
# T4 chain: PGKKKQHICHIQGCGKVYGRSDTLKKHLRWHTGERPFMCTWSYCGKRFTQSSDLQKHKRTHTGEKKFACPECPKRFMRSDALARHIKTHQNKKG
# T5: ZFP SBS#409 (synthetic)
# T5 chain: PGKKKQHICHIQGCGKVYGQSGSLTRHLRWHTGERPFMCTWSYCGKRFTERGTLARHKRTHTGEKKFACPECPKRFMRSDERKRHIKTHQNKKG
# T6: ZFP SBS#406 (synthetic)
# T6 chain: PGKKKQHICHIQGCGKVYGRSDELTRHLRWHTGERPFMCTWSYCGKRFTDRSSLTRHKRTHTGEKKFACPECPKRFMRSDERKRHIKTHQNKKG
# T7: ZFP SBS#405 (synthetic)
# T7 chain: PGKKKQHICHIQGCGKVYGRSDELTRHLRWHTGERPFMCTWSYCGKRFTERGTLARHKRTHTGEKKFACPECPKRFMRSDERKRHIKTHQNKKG
# T8: ZFP SBS#407 (synthetic)
# T8 chain: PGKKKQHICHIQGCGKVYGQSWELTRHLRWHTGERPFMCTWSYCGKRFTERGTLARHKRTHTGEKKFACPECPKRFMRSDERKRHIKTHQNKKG
# T9: ZFP SBS#408 (synthetic)
# T9 chain: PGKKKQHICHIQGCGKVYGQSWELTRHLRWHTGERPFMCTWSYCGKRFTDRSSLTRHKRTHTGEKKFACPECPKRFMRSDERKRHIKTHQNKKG
# T10: ZFP SBS#385 (synthetic)
# T10 chain: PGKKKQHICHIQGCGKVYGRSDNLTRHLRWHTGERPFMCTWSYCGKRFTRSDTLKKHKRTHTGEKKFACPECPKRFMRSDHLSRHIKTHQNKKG
# T11: ZFP SBS#386 (synthetic, UniProt P08047)
# T11 chain: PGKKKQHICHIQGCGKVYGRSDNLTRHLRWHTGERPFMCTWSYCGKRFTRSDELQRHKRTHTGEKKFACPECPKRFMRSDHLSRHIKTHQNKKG
# T12: ZFP SBS#514 (synthetic)
# T12 chain: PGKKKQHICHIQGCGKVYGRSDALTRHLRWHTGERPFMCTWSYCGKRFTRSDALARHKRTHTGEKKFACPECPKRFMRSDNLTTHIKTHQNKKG
# T13: ZFP SBS#501 (synthetic)
# T13 chain: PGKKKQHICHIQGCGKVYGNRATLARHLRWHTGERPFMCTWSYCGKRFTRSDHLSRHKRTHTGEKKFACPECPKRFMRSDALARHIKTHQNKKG
# T14: ZFP SBS#340 (synthetic)
# T14 chain: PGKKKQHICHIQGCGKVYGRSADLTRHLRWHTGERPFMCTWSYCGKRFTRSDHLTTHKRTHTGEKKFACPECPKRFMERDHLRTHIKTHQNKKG
# T15: ZFP SBS#494 (synthetic)
# T15 chain: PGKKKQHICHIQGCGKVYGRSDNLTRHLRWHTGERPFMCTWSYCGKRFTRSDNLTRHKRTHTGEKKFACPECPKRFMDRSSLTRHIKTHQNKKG
# T16: ZFP SBS#378 (synthetic)
# T16 chain: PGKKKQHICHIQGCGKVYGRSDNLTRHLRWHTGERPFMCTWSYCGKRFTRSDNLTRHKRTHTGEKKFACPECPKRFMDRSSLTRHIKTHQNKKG
# T17: ZFP SBS#379 (synthetic)
# T17 chain: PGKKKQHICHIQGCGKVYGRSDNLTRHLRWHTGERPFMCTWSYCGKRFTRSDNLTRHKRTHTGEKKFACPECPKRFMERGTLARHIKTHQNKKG
# T18: ZFP SBS#410 (synthetic)
# T18 chain: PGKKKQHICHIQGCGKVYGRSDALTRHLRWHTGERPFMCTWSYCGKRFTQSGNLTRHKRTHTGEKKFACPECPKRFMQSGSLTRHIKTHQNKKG
# T19: ZFP SBS#400 (synthetic)
# T19 chain: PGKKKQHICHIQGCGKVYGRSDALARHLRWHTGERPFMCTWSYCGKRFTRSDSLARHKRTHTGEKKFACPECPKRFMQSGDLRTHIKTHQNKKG
# Legend:
# Assay in all cases: EMSA
# Conditions in all cases: tags: MBP fusion
# ZFP SBS#507 = biological target: T1, ZFP SBS#507
# Experimental: (§1) Affinity is measured by titrating purified protein against a fixed amount of labeled double-stranded oligonucleotide target. The target typically comprises the natural binding site sequence flanked by the 3 bp found in the natural sequence and additional, constant flanking sequences. The natural binding site is typically 9 bp for a three-finger protein and 2×9 bp +intervening bases for a six finger ZFP. […] For the assay the target is added at a concentration of 1 nM or lower (the actual concentration is kept at least 10-fold lower than the expected dissociation constant), purified ZFPs are added at various concentrations, and the reaction is allowed to equilibrate for at least 45 min. In addition the reaction mixture also contains 10 mM Tris (pH 7.5), 100 mM KCl, 1 mM MgCl2, 0.1 mM ZnCl2, 5 mM DTT, 10% glycerol, 0.02% BSA. (NB: in earlier assays poly d(IC) was also added at […].) The equilibrated reactions are loaded onto a 10% polyacrylamide gel, which has been pre-run for 45 min in Tris/glycine buffer, then bound and unbound labeled target is resolved by electrophoresis at 150V.
# ZFP SBS#508 = biological target: T2, ZFP SBS#508
# Experimental: as §1
# ZFP SBS#387 = ZFP SBS#387 (synthetic)
# ZFP SBS#387 (synthetic), sequence (chain, as listed by the source): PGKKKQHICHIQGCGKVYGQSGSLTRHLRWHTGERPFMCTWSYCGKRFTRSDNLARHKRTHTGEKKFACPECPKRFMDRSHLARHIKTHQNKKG
# Experimental: as §1
# ZFP SBS#388 = ZFP SBS#388 (synthetic)
# ZFP SBS#388 (synthetic), sequence (chain, as listed by the source): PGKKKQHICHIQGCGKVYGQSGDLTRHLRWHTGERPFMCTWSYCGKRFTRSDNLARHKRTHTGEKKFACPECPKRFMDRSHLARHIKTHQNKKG
# Experimental: as §1
# ZFP SBS#493 = biological target: T3, ZFP SBS#493
# Experimental: as §1
# ZFP SBS#390 = biological target: T4, ZFP SBS#390
# Experimental: as §1
# ZFP SBS#510 = ZFP SBS#510 (synthetic)
# ZFP SBS#510 (synthetic), sequence (chain, as listed by the source): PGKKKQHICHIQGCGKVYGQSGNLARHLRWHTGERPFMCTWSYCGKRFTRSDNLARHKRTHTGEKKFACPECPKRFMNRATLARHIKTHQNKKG
# Experimental: as §1
# ZFP SBS#511 = ZFP SBS#511 (synthetic)
# ZFP SBS#511 (synthetic), sequence (chain, as listed by the source): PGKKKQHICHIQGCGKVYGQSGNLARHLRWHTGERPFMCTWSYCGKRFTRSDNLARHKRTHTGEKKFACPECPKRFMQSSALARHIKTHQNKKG
# Experimental: as §1
# ZFP SBS#409 = biological target: T5, ZFP SBS#409
# Experimental: as §1
# ZFP SBS#406 = biological target: T6, ZFP SBS#406
# Experimental: as §1
# ZFP SBS#405 = biological target: T7, ZFP SBS#405
# Experimental: as §1
# ZFP SBS#407 = biological target: T8, ZFP SBS#407
# Experimental: as §1
# ZFP SBS#408 = biological target: T9, ZFP SBS#408
# Experimental: as §1
# ZFP SBS#385 = biological target: T10, ZFP SBS#385
# Experimental: as §1
# ZFP SBS#386 = biological target: T11, ZFP SBS#386
# Experimental: as §1
# ZFP SBS#514 = biological target: T12, ZFP SBS#514
# Experimental: as §1
# ZFP SBS#501 = biological target: T13, ZFP SBS#501
# Experimental: as §1
# ZFP SBS#413 = ZFP SBS#413 (synthetic)
# ZFP SBS#413 (synthetic), sequence (chain, as listed by the source): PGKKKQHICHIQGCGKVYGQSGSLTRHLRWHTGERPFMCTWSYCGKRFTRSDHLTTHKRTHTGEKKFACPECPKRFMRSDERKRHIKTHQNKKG
# Experimental: as §1
# ZFP SBS#412 = ZFP SBS#412 (synthetic)
# Experimental: as §1
# ZFP SBS#513 = ZFP SBS#513 (synthetic)
# ZFP SBS#513 (synthetic), sequence (chain, as listed by the source): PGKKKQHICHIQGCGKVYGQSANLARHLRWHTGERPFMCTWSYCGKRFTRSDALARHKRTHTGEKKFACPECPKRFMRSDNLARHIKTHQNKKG
# Experimental: as §1
# ZFP SBS#512 = ZFP SBS#512 (synthetic)
# ZFP SBS#512 (synthetic), sequence (chain, as listed by the source): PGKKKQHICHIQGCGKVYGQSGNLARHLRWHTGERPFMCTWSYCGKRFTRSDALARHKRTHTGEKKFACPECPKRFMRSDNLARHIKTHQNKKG
# Experimental: as §1
# ZFP SBS#502 = ZFP SBS#502 (synthetic, UniProt P08047)
# ZFP SBS#502, sequence (P08047 other isoform, or with tags, fused parts or gaps): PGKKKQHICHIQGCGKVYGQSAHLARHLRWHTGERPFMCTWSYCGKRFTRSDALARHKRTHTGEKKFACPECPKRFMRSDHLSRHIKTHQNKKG
# Experimental: as §1
# ZFP SBS#337 = ZFP SBS#337 (synthetic)
# ZFP SBS#337 (synthetic), sequence (chain, as listed by the source): as the sequence (P08047 other isoform, or with tags, fused parts or gaps) above, with Q20R, H23D, A25T, A53H, A55T, R78E, S79R, D80Q, S83A, R84T counted along it
# Experimental: as §1
# ZFP SBS#339 = ZFP SBS#339 (synthetic)
# ZFP SBS#339 (synthetic), sequence (chain, as listed by the source): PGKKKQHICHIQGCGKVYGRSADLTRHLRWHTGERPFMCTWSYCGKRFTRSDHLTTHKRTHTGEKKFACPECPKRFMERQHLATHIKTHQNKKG
# Experimental: as §1
# ZFP SBS#338 = ZFP SBS#338 (synthetic)
# ZFP SBS#338 (synthetic), sequence (chain, as listed by the source): as the sequence (P08047 other isoform, or with tags, fused parts or gaps) above, with Q20R, H23D, A25T, A53H, A55T, R78E, S79R, S83R, R84T counted along it
# Experimental: as §1
# ZFP SBS#343 = ZFP SBS#343 (synthetic)
# Experimental: as §1
# ZFP SBS#346 = ZFP SBS#346 (synthetic)
# Experimental: as §1
# ZFP SBS#345 = ZFP SBS#345 (synthetic)
# Experimental: as §1
# ZFP SBS#344 = ZFP SBS#344 (synthetic)
# ZFP SBS#344 (synthetic), sequence (chain, as listed by the source): as the sequence (P08047 other isoform, or with tags, fused parts or gaps) above, with A22G, H23S, A25T, A53H, A55T, R78E, S79R, S83R, R84T counted along it
# Experimental: as §1
# ZFP SBS#340 = biological target: T14, ZFP SBS#340
# Experimental: as §1
# ZFP SBS#509 = ZFP SBS#509 (synthetic)
# ZFP SBS#509 (synthetic), sequence (chain, as listed by the source): as the sequence (P08047 other isoform, or with tags, fused parts or gaps) above, with Q20R, A22D, A25T, R26T, R78D, S79R, D80S, H81A, S83A counted along it
# Experimental: as §1
# ZFP SBS#494 = biological target: T15, ZFP SBS#494
# Experimental: as §1
# ZFP SBS#378 = biological target: T16, ZFP SBS#378
# Experimental: as §1
# ZFP SBS#379 = biological target: T17, ZFP SBS#379
# Experimental: as §1
# ZFP SBS#410 = biological target: T18, ZFP SBS#410
# Experimental: as §1
# ZFP SBS#400 = biological target: T19, ZFP SBS#400
# Experimental: as §1
# ZFP SBS#397 = ZFP SBS#397 (synthetic)
# ZFP SBS#397 (synthetic), sequence (chain, as listed by the source): as the sequence (P08047 other isoform, or with tags, fused parts or gaps) above, with A22G, H23D, A25T, R50Q, D52G, A53H, A55Q, H81T, S83K, R84K counted along it
# Experimental: as §1
# ZFP SBS#396 = ZFP SBS#396 (synthetic)
# ZFP SBS#396 (synthetic), sequence (chain, as listed by the source): as the sequence (P08047 other isoform, or with tags, fused parts or gaps) above, with A22G, H23S, A25T, R50Q, D52G, A53H, A55Q, H81T, S83K, R84K counted along it
# Experimental: as §1
binder,measurement,setting,value
GAGGTAGAGG (dsDNA) DNA 1: GAGGTAGAGG DNA 2: CCTCTACCTC,Kd,ZFP SBS#507,10 nM
same,Kd,ZFP SBS#508,10 nM
GGCGAGGCAA (dsDNA) DNA 1: GGCGAGGCAA DNA 2: TTGCCTCGCC,Kd,ZFP SBS#387,2.5 nM
same,Kd,ZFP SBS#388,28 nM
GGGGTGGCGG (dsDNA) DNA 1: GGGGTGGCGG DNA 2: CCGCCACCCC,Kd,ZFP SBS#493,300 nM
GTGGCAGCGG (dsDNA) DNA 1: GTGGCAGCGG DNA 2: CCGCTGCCAC,Kd,ZFP SBS#390,20 nM
GTTGAGGAAG (dsDNA) DNA 1: GTTGAGGAAG DNA 2: CTTCCTCAAC,Kd,ZFP SBS#510,100 nM
same,Kd,ZFP SBS#511,100 nM
GCGGCCGCA (dsDNA) DNA 1: GCGGCCGCA DNA 2: TGCGGCCGC,Kd,ZFP SBS#409,50 nM
same,Kd,ZFP SBS#406,110 nM
same,Kd,ZFP SBS#405,110 nM
same,Kd,ZFP SBS#407,410 nM
same,Kd,ZFP SBS#408,380 nM
GGGGCGGAGC (dsDNA) DNA 1: GGGGCGGAGC DNA 2: GCTCCGCCCC,Kd,ZFP SBS#385,1.2 nM
same,Kd,ZFP SBS#386,0.4 nM
TAGGTGGTGG (dsDNA) DNA 1: TAGGTGGTGG DNA 2: CCACCACCTA,Kd,ZFP SBS#514,10 nM
GTGGGGGTT (dsDNA) DNA 1: GTGGGGGTT DNA 2: AACCCCCAC,Kd,ZFP SBS#501,8 nM
GCGTGGGCA (dsDNA) DNA 1: GCGTGGGCA DNA 2: TGCCCACGC,Kd,ZFP SBS#413,5 nM
GCGTGGGCG (dsDNA) DNA 1: GCGTGGGCG DNA 2: CGCCCACGC,Kd,ZFP SBS#412,5 nM
GAGGTGGAAG (dsDNA) DNA 1: GAGGTGGAAG DNA 2: CTTCCACCTC,Kd,ZFP SBS#513,1.5 nM
same,Kd,ZFP SBS#512,10 nM
GGGGTGGGA (dsDNA) DNA 1: GGGGTGGGA DNA 2: TCCCACCCC,Kd,ZFP SBS#502,60 nM
TGCGGGGCAA (dsDNA) DNA 1: TGCGGGGCAA DNA 2: TTGCCCCGCA,Kd,ZFP SBS#337,24 nM
same,Kd,ZFP SBS#339,64 nM
same,Kd,ZFP SBS#338,8 nM
same,Kd,ZFP SBS#343,8 nM
same,Kd,ZFP SBS#346,64 nM
same,Kd,ZFP SBS#345,96 nM
same,Kd,ZFP SBS#344,6 nM
same,Kd,ZFP SBS#340,48 nM
GTCGTGTGGC (dsDNA) DNA 1: GTCGTGTGGC DNA 2: GCCACACGAC,Kd,ZFP SBS#509,100 nM
GCCGAGGAGA (dsDNA) DNA 1: GCCGAGGAGA DNA 2: TCTCCTCGGC,Kd,ZFP SBS#494,90 nM
same,Kd,ZFP SBS#378,31 nM
same,Kd,ZFP SBS#379,3 nM
GCAGAAGTC (dsDNA) DNA 1: GCAGAAGTC DNA 2: GACTTCTGC,Kd,ZFP SBS#410,3 nM
TCAGTGGTGG (dsDNA) DNA 1: TCAGTGGTGG DNA 2: CCACCACTGA,Kd,ZFP SBS#400,40 nM
GCGGGAGCAG (dsDNA) DNA 1: GCGGGAGCAG DNA 2: CTGCTCCCGC,Kd,ZFP SBS#397,25 nM
same,Kd,ZFP SBS#396,18.8 nM
